Experimental data: patent publication US20160272683A1 (Novo Nordisk, published 2016)
Numbered stars: 1 amine (or outer) side, 2 acyl side, 3 side chain; on linkers, the order of the positions; unused ones are H or OH. * marks the point of attachment. C20 diacid = O=C(O)CCCCCCCCCCCCCCCCCCC(=O)*; γGlu = O=C(O)[C@H](CCC(=O)[*:2])N[*:1]; C12 diacid = O=C(O)CCCCCCCCCCC(=O)*

T1: human amylin 3(a) receptor (human calcitonin receptor co-expressed with RAMP-3) (human, UniProt P30988 25-474; O60896 24-148, limits assumed)
T1 sequence (looked up) 1: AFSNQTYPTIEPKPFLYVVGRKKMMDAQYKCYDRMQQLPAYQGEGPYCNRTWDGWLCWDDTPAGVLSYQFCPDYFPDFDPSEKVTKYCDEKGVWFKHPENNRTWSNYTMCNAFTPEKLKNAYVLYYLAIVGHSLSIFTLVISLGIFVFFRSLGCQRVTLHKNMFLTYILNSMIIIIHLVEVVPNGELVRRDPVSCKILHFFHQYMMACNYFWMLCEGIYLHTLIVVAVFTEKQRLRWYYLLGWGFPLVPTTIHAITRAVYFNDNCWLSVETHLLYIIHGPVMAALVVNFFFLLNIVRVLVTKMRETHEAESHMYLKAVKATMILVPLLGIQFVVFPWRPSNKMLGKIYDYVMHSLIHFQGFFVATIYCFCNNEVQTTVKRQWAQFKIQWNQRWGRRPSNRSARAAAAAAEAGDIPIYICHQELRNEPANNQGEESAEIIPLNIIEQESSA
T1 sequence (looked up) 2: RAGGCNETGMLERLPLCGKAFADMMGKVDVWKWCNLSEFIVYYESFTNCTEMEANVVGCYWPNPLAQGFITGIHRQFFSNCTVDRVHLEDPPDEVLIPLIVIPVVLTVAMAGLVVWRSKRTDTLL

T2: human calcitonin receptor (human, UniProt P30988 25-474)
T2 sequence (looked up): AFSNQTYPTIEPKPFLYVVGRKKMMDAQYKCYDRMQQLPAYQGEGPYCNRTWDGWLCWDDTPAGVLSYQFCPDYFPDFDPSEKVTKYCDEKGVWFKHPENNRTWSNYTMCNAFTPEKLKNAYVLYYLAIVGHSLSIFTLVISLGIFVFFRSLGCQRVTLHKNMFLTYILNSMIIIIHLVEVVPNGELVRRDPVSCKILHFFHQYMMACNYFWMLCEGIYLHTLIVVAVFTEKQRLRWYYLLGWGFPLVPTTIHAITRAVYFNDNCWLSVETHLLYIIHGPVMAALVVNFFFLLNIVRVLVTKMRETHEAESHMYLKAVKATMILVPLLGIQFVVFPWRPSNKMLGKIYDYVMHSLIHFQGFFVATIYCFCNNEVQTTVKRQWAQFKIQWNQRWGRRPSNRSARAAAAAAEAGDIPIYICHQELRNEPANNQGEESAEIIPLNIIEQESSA


Key:
[1] = biological target: T1, human amylin 3(a) receptor (human …); assay: cell-based or functional assay
[2] = biological target: T2, human calcitonin receptor; assay: cell-based or functional assay

| Binder | hAmylin-R funct. EC50 (pM) [1] [pM] | hCTR funct. EC50 (pM) [2] [pM] |
| --- | --- | --- |
| {C20 diacid-γGlu}-ASELSTAALGRLSAELHELATLPRTETGSGSG-NH2 (SMILES CC(C)C[C@H](NC(=O)[C@H](C)NC(=O)[C@H](C)NC(=O)[C@@H](NC(=O)[C@H](CO)NC(=O)[C@H](CC(C)C)NC(=O)[C@H](CCC(=O)O)NC(=O)[C@H](CO)NC(=O)[C@H](C)NC(=O)CC[C@H](NC(=O)CCCCCCCCCCCCCCCCCCC(=O)O)C(=O)O)[C@@H](C)O)C(=O)NCC(=O)N[C@@H](CCCNC(=N)N)C(=O)N[C@@H](CC(C)C)C(=O)N[C@@H](CO)C(=O)N[C@@H](C)C(=O)N[C@@H](CCC(=O)O)C(=O)N[C@@H](CC(C)C)C(=O)N[C@@H](Cc1c[nH]cn1)C(=O)N[C@@H](CCC(=O)O)C(=O)N[C@@H](CC(C)C)C(=O)N[C@@H](C)C(=O)N[C@H](C(=O)N[C@@H](CC(C)C)C(=O)N1CCC[C@H]1C(=O)N[C@@H](CCCNC(=N)N)C(=O)N[C@H](C(=O)N[C@@H](CCC(=O)O)C(=O)N[C@H](C(=O)NCC(=O)N[C@@H](CO)C(=O)NCC(=O)N[C@@H](CO)C(=O)NCC(N)=O)[C@@H](C)O)[C@@H](C)O)[C@@H](C)O) [[N-terminal(C20 diacid-gGlu), des1, 30S, 31G, 33G]mimylin] | 142 | 66 |
| {C12 diacid}-EASELSTAALGRLSAELHELATLPRTETGPESP-NH2 [[N-terminal(C12 diacid)]mimylin] | 23 | 8 |
| {C20 diacid-γGlu}-ASELSTAALGRLSAELHELATLPRTETGSGSF-NH2 (SMILES CC(C)C[C@H](NC(=O)[C@H](C)NC(=O)[C@H](C)NC(=O)[C@@H](NC(=O)[C@H](CO)NC(=O)[C@H](CC(C)C)NC(=O)[C@H](CCC(=O)O)NC(=O)[C@H](CO)NC(=O)[C@H](C)NC(=O)CC[C@H](NC(=O)CCCCCCCCCCCCCCCCCCC(=O)O)C(=O)O)[C@@H](C)O)C(=O)NCC(=O)N[C@@H](CCCNC(=N)N)C(=O)N[C@@H](CC(C)C)C(=O)N[C@@H](CO)C(=O)N[C@@H](C)C(=O)N[C@@H](CCC(=O)O)C(=O)N[C@@H](CC(C)C)C(=O)N[C@@H](Cc1c[nH]cn1)C(=O)N[C@@H](CCC(=O)O)C(=O)N[C@@H](CC(C)C)C(=O)N[C@@H](C)C(=O)N[C@H](C(=O)N[C@@H](CC(C)C)C(=O)N1CCC[C@H]1C(=O)N[C@@H](CCCNC(=N)N)C(=O)N[C@H](C(=O)N[C@@H](CCC(=O)O)C(=O)N[C@H](C(=O)NCC(=O)N[C@@H](CO)C(=O)NCC(=O)N[C@@H](CO)C(=O)N[C@@H](Cc1ccccc1)C(N)=O)[C@@H](C)O)[C@@H](C)O)[C@@H](C)O) [[N-terminal(C20 diacid-gGlu), des1, 30S, 31G, 33F]mimylin] | 50 | 40 |

More lines, now with the values ahead:

| hAmylin-R funct. EC50 (pM) [1] [pM] | hCTR funct. EC50 (pM) [2] [pM] | Binder |
| --- | --- | --- |
| 53 | 48 | {C20 diacid-γGlu}-ASELSTAALGRLSAELHELATLPRTETGSGSH-NH2 (SMILES CC(C)C[C@H](NC(=O)[C@H](C)NC(=O)[C@H](C)NC(=O)[C@@H](NC(=O)[C@H](CO)NC(=O)[C@H](CC(C)C)NC(=O)[C@H](CCC(=O)O)NC(=O)[C@H](CO)NC(=O)[C@H](C)NC(=O)CC[C@H](NC(=O)CCCCCCCCCCCCCCCCCCC(=O)O)C(=O)O)[C@@H](C)O)C(=O)NCC(=O)N[C@@H](CCCNC(=N)N)C(=O)N[C@@H](CC(C)C)C(=O)N[C@@H](CO)C(=O)N[C@@H](C)C(=O)N[C@@H](CCC(=O)O)C(=O)N[C@@H](CC(C)C)C(=O)N[C@@H](Cc1c[nH]cn1)C(=O)N[C@@H](CCC(=O)O)C(=O)N[C@@H](CC(C)C)C(=O)N[C@@H](C)C(=O)N[C@H](C(=O)N[C@@H](CC(C)C)C(=O)N1CCC[C@H]1C(=O)N[C@@H](CCCNC(=N)N)C(=O)N[C@H](C(=O)N[C@@H](CCC(=O)O)C(=O)N[C@H](C(=O)NCC(=O)N[C@@H](CO)C(=O)NCC(=O)N[C@@H](CO)C(=O)N[C@@H](Cc1c[nH]cn1)C(N)=O)[C@@H](C)O)[C@@H](C)O)[C@@H](C)O) [[N-terminal(C20 diacid-gGlu), des1, 30S, 31G, 33H]mimylin] |
| 55 | 31 | {C20 diacid-γGlu}-ASELSTAALGRLSAELHELATLPRTETGSGSL-NH2 (SMILES CC(C)C[C@H](NC(=O)[C@H](CO)NC(=O)CNC(=O)[C@H](CO)NC(=O)CNC(=O)[C@@H](NC(=O)[C@H](CCC(=O)O)NC(=O)[C@@H](NC(=O)[C@H](CCCNC(=N)N)NC(=O)[C@@H]1CCCN1C(=O)[C@H](CC(C)C)NC(=O)[C@@H](NC(=O)[C@H](C)NC(=O)[C@H](CC(C)C)NC(=O)[C@H](CCC(=O)O)NC(=O)[C@H](Cc1c[nH]cn1)NC(=O)[C@H](CC(C)C)NC(=O)[C@H](CCC(=O)O)NC(=O)[C@H](C)NC(=O)[C@H](CO)NC(=O)[C@H](CC(C)C)NC(=O)[C@H](CCCNC(=N)N)NC(=O)CNC(=O)[C@H](CC(C)C)NC(=O)[C@H](C)NC(=O)[C@H](C)NC(=O)[C@@H](NC(=O)[C@H](CO)NC(=O)[C@H](CC(C)C)NC(=O)[C@H](CCC(=O)O)NC(=O)[C@H](CO)NC(=O)[C@H](C)NC(=O)CC[C@H](NC(=O)CCCCCCCCCCCCCCCCCCC(=O)O)C(=O)O)[C@@H](C)O)[C@@H](C)O)[C@@H](C)O)[C@@H](C)O)C(N)=O) [[N-terminal(C20 diacid-gGlu), des1, 30S, 31G, 33L]mimylin] |
| 46 | 37 | {C20 diacid-γGlu}-ASELSTAALGRLSAELHELATLPRTETGSGSY-NH2 (SMILES CC(C)C[C@H](NC(=O)[C@H](C)NC(=O)[C@H](C)NC(=O)[C@@H](NC(=O)[C@H](CO)NC(=O)[C@H](CC(C)C)NC(=O)[C@H](CCC(=O)O)NC(=O)[C@H](CO)NC(=O)[C@H](C)NC(=O)CC[C@H](NC(=O)CCCCCCCCCCCCCCCCCCC(=O)O)C(=O)O)[C@@H](C)O)C(=O)NCC(=O)N[C@@H](CCCNC(=N)N)C(=O)N[C@@H](CC(C)C)C(=O)N[C@@H](CO)C(=O)N[C@@H](C)C(=O)N[C@@H](CCC(=O)O)C(=O)N[C@@H](CC(C)C)C(=O)N[C@@H](Cc1c[nH]cn1)C(=O)N[C@@H](CCC(=O)O)C(=O)N[C@@H](CC(C)C)C(=O)N[C@@H](C)C(=O)N[C@H](C(=O)N[C@@H](CC(C)C)C(=O)N1CCC[C@H]1C(=O)N[C@@H](CCCNC(=N)N)C(=O)N[C@H](C(=O)N[C@@H](CCC(=O)O)C(=O)N[C@H](C(=O)NCC(=O)N[C@@H](CO)C(=O)NCC(=O)N[C@@H](CO)C(=O)N[C@@H](Cc1ccc(O)cc1)C(N)=O)[C@@H](C)O)[C@@H](C)O)[C@@H](C)O) [[N-terminal(C20 diacid-gGlu), des1, 30S, 31G, 33Y]mimylin] |
| 63 | 38 | {C20 diacid-γGlu}-ASELSTAALGRLSAELHELATLPRTETGSGSS-NH2 (SMILES CC(C)C[C@H](NC(=O)[C@H](C)NC(=O)[C@H](C)NC(=O)[C@@H](NC(=O)[C@H](CO)NC(=O)[C@H](CC(C)C)NC(=O)[C@H](CCC(=O)O)NC(=O)[C@H](CO)NC(=O)[C@H](C)NC(=O)CC[C@H](NC(=O)CCCCCCCCCCCCCCCCCCC(=O)O)C(=O)O)[C@@H](C)O)C(=O)NCC(=O)N[C@@H](CCCNC(=N)N)C(=O)N[C@@H](CC(C)C)C(=O)N[C@@H](CO)C(=O)N[C@@H](C)C(=O)N[C@@H](CCC(=O)O)C(=O)N[C@@H](CC(C)C)C(=O)N[C@@H](Cc1c[nH]cn1)C(=O)N[C@@H](CCC(=O)O)C(=O)N[C@@H](CC(C)C)C(=O)N[C@@H](C)C(=O)N[C@H](C(=O)N[C@@H](CC(C)C)C(=O)N1CCC[C@H]1C(=O)N[C@@H](CCCNC(=N)N)C(=O)N[C@H](C(=O)N[C@@H](CCC(=O)O)C(=O)N[C@H](C(=O)NCC(=O)N[C@@H](CO)C(=O)NCC(=O)N[C@@H](CO)C(=O)N[C@@H](CO)C(N)=O)[C@@H](C)O)[C@@H](C)O)[C@@H](C)O) [[N-terminal(C20 diacid-gGlu), des1, 30S, 31G, 33S]mimylin] |
